Here are results for one substance from patent publication US20110189205A1.

The target in experiment [1] is CGRP receptor on human MDA-MB-231BR breast cancer cells (human) (UniProt Q16602). As to the kind of experiment: cell-based or functional assay.
The target of experiment [2] is CGRP receptor on rat CNS1 glioma cells (rat) (UniProt Q63118). The experiment is described as follows: cell-based or functional assay.
CGRP receptor on rat CNS1 glioma cells (rat), sequence (Q63118 24-464, chain 1 of 2): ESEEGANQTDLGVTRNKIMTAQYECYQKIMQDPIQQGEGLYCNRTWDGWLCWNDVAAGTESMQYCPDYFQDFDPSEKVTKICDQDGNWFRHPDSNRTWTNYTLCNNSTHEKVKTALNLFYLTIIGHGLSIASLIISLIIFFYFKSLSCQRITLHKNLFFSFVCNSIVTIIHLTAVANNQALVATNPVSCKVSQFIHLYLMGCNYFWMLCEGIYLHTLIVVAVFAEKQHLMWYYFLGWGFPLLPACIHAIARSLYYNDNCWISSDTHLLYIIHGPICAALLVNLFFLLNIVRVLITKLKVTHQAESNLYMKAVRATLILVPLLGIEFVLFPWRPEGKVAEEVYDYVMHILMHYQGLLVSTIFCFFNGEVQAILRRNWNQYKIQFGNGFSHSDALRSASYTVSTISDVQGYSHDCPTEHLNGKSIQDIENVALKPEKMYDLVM
CGRP receptor on rat CNS1 glioma cells (rat), sequence (Q9JJ74 27-148, chain 2 of 2, further chain): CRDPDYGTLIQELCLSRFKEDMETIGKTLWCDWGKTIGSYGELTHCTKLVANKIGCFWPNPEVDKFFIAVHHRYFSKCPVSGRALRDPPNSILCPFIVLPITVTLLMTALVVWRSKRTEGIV

CGRP receptor on human MDA-MB-231BR breast cancer cells (human), sequence (Q16602 23-461, chain 1 of 2): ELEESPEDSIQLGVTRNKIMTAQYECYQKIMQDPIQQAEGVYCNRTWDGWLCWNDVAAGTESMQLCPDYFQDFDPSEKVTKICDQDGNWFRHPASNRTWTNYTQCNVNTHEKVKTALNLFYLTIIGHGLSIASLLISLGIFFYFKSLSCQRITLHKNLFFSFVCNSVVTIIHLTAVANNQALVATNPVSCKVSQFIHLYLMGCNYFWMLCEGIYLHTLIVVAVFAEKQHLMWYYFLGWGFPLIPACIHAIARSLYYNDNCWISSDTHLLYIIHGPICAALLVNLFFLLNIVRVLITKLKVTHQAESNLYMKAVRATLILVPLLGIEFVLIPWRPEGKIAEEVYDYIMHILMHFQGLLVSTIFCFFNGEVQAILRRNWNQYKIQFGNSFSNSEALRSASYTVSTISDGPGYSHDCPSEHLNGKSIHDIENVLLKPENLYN
CGRP receptor on human MDA-MB-231BR breast cancer cells (human), sequence (O60894 27-148, chain 2 of 2, further chain): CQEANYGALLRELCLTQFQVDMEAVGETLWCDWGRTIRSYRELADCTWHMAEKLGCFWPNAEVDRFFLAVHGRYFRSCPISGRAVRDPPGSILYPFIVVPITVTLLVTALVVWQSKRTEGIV

As to “calcitonin gene-related peptide (CGRP), unlabeled (from UniProt P01256 83-119)”, in experiment [1], the MDA-MB-231BR cell growth over control, normoxic conditions, 4 days in culture was 6 fold. Moreover, in experiment [2], the CNS1 cell growth over control, normoxic conditions, 4 days in culture turned out to be 4 fold; the CNS1 cell growth over control, normoxic conditions, 5 days in culture amounted to 11 fold; the CNS1 glioma growth over control, hypoxic conditions, 4 days in culture stood at 72 fold; the CNS1 glioma growth over control, hypoxic conditions, 5 days in culture is 10 fold.
